Values belong to the binder of their own block, whether it stands above or below them.
Legend:
rat PAI-1 (rat) = target: T1, rat PAI-1 (rat) (UniProt P20961); assay: cell-based or functional assay
T1 sequence: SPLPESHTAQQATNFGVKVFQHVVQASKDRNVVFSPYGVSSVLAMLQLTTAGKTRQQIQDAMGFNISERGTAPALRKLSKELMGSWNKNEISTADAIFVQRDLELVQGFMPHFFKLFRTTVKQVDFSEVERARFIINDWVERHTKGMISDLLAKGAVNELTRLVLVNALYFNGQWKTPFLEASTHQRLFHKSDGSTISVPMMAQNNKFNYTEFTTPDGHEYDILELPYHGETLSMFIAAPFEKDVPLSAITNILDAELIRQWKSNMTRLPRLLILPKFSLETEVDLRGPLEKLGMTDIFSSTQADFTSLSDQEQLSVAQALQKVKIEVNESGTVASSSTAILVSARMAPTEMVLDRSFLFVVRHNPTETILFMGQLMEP

[1] = target: active human PAI-1, recombinant, wild-type, non-glycosylated (E. coli) (human) (UniProt P05121); assay: cell-based or functional assay
Sequence of active human PAI-1, recombinant, wild-type, non-glycosylated (E. coli) (human) (P05121 24-402): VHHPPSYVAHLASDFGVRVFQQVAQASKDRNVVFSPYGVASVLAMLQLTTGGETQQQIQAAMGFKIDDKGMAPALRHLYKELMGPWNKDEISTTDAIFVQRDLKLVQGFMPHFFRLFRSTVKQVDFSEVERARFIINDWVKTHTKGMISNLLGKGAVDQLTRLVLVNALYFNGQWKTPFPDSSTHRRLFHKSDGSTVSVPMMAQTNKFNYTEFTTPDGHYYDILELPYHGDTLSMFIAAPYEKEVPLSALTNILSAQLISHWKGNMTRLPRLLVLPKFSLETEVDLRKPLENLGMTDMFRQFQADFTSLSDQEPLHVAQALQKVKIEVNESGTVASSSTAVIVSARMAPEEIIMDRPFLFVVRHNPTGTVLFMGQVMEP

[2] = target: Antibody 16 IgG1, not germlined; assay: competition binding assay: Antibody 16 IgG adsorbed to the plate, biotinylated active human PAI-1 plus a titration of the unlabelled competitor, streptavidin-Europium detection

Chromogenic (IC50 in nM) rat (rat PAI-1 (rat)): 238 nM
Chromogenic IC50 ratio rat/human (rat PAI-1 (rat)): 190 fold
HT-1080 Exo PAI-1 (IC50 in nM) rat (rat PAI-1 (rat)): 37 nM
IC50 in the rat chromogenic assay, fold higher than in the human assay (rat PAI-1 (rat)): 180 fold
Chromogenic (IC50 in nM) human [1]: 1.3 nM
B1: Antibody 18 scFv (scFv, V domains shown, part only)
VH: QVQLQQSGAEVKKPGSSVKVSCKASGGTFSSYAISWVRQAPGQGLEWMGGIIPTFGTANYAQKLQGRVTITADESTSTAYMELSGLRSEDTAVYYCAREKRQWLEGHFDYWGRGTPVTVSS
VL: DIQMTQSPSFLSASIGDRVTITCRASEGIYHALAWYQQKPGKAPKLLIYRASSLASGAPSRFSGSGSGTDFTLTISSLQPDDFATYYCQQYSNYPLTFGGGTKLEIK
modifications: linker not stated

IC50 (read off the curve) [2]: 6 nM
B2: mouse PAI-1 (protein)
chain: ALPLRESHTAHQATDFGVKVFQQVVQASKDRNVVFSPYGVSSVLAMLQMTTAGKTRRQIQDAMGFKVNEKGTAHALRQLSKELMGPWNKNEISTADAIFVQRDLELVQGFMPHFFKLFQTMVKQVDFSEVERARFIINDWVERHTKGMINDLLAKGAVDELTRLVLVNALYFSGQWKTPFLEASTHQRLFHKSDGSTVSVPMMAQSNKFNYTEFTTPDGLEYDVVELPYQGDTLSMFIAAPFEKDVHLSALTNILDAELIRQWKGNMTRLPRLLILPKFSLETEVDLRGPLEKLGMPDMFSATLADFTSLSDQEQLSVAQALQKVRIEVNESGTVASSSTAFVISARMAPTEMVIDRSFLFVVRHNPTETILFMGQVMES
